From patent publication US20120134982A1 (published 2012)
Residue numbers refer to the chain shown, from its start.

What was measured:
[1] = target: human TNFR1, soluble recombinant protein (human) (UniProt P19438); assay: phage ELISA on 1 nM TNFR1 coat, anti-M13-HRP; phage after 100 ug/ml trypsin 1 h RT; phage input 2.26E+10
recombinant human VEGF = target: T1, recombinant human VEGF (human, UniProt P15692-4 27-191, biotinylated where used on streptavidin or neutravidin surfaces); assay: RBA assay (column 'Activity (nM)'); taken to be of the Fc fusion; competitor VEGFR2-Fc
T1 construct: also called hVEGF; VEGFA
T1 sequence (P15692 other isoform, or with tags, fused parts or gaps limits assumed): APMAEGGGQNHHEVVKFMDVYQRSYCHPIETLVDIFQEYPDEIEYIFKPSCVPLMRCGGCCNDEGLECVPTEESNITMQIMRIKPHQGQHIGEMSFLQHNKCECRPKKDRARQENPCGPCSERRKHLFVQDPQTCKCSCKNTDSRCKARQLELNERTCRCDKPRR

TNFR1-FC fusion [2] = target: T2, TNFR1-FC fusion (human, UniProt P19438 30-211, limits assumed); assay: RBA assay (column 'Activity (nM)'); taken to be of the Fc fusion; competition with TNF-alpha
T2 construct: not shown: Fc part, not described further
T2 sequence (looked up): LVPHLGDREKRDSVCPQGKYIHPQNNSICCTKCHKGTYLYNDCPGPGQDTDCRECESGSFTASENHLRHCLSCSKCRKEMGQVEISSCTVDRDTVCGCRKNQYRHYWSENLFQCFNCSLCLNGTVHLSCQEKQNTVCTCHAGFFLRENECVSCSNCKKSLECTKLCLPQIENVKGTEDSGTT

TNFR1-FC fusion [3] = target: T2, TNFR1-FC fusion; assay: TNFR-1 receptor binding assay: inhibition of TNF-alpha binding to TNFR1; after 7 days at 50 °C, concentration assumed from 1 mg/ml
TNFR1-FC fusion [4] = target: T2, TNFR1-FC fusion; assay: TNFR-1 receptor binding assay: inhibition of TNF-alpha binding to TNFR1; after 14 days at 50 °C, concentration assumed from 1 mg/ml
TNFR1-FC fusion [5] = target: T2, TNFR1-FC fusion; assay: TNFR-1 receptor binding assay: inhibition of TNF-alpha binding to TNFR1; unstressed sample (T0)

DOM1h-131
phage ELISA signal [1]: 0.337

B1: DMS1546 (DOM15-10 Fc fusion) (Fc fusion)
chain: DIQMTQSPSSLSASVGDRVTITCRASQWIGPELSWYQQKPGKAPKLLIYHTSILQSGVPSRFSGSGSGTDFTLTISSLQPEDFATYYCQQYMFQPRTFGQGTKVEIRR
notes: VK dAb fused to human IgG1 Fc; dimeric Fc fusion format; not shown: short linker and human IgG1 Fc
EC50 (recombinant human VEGF): 913 pM

B2: DMS1544 (DOM1h-131-206 Fc fusion) (Fc fusion)
chain: EVQLLESGGGLVQPGGSLRLSCAASGFTFAHETMVWVRQAPGKGLEWVSHIPPDGQDPFYADSVKGRFTISRDNSKNTLYLQMNSLRAEDTAVYHCALLPKRGPWFDYWGQGTLVTVSS
notes: dAb fused to human IgG1 Fc; dimeric Fc fusion format; not shown: short linker and human IgG1 Fc
EC50 (TNFR1-FC fusion [2]): 47 pM

B3: DOM1h-131-206 (other)
VH: B2 chain
notes: also called GSK1995057A
IC50 (read off the curve) (TNFR1-FC fusion [3]): ~100 pM | IC50 (read off the curve) (TNFR1-FC fusion [4]): ~100 pM

B4: DOM1h-131-511 (other)
VH: B2 chain with D54V, H95Y
notes: Anti-TNFR1 domain antibody (dAb, immunoglobulin single variable domain, VH), tested as soluble monomer; also called GSK1995056A
IC50 (read off the curve) (TNFR1-FC fusion [5]): ~100 pM
